Data from the nanobody polyreactivity screen of Harvey et al. (2022).

Assay: yeast display, Sf9 membrane polyspecificity reagent, FACS + sequencing; frameworks hold sequencing errors
Outline: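 Polyreactivity labels are assigned by the sorting gate from which each nanobody was recovered. The gates were low and high (top ~1%), set on anti-HA fluorescence for expression and streptavidin fluorescence for reagent binding. Before sorting, galactose-induced (36–48 hours) yeast display cells were stained for 1 hour at 4 °C with 10% biotinylated, detergent-solubilized Sf9 membrane reagent.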

Sequence	polyreactivity (PSR sort gate)
QVQLVESGGGLVQAGGSLRLSCAASGGTFIMYAMGWYRQAPGKERELVASITWSGGRTYYADSVKGRFTISRDNSKNTVYLQMNSLKPEDTAVYYCNTPPSYIMDYWGQGTQVTVSS	low polyreactivity
QVQLVESGGGLVQAGGSLRLSCAASGGTFIRYAMGWYRQAPGKEREFVAAISASGGSTYYADSVKGRFTISRDNAKNTVYLQMNSLKPEDTAVYYCAARRTNLPVKFYYWGQGTQVTVSS	high polyreactivity
QVQLVESGGGLVQAGGSLRLSCAASGGTFKTNAMGWYRQAPGKERELVAAITGSGTSTYYADSVKGRFTISRDNAKYTVYLQMNSLKPEDTAVYYCAADKLYQPGIGDDYWGQGTQVTVSS	low polyreactivity
QVQLVESGGGLVQAGGSLRLSCAASGGTFLFYGMGWYRQAPGKERELVAVITWSGGSTYYADSVKGRFTISRDNAKNTVYLQMNSLKPEDTAVYYCNAANTGSPDYQSIGYNFNYWGQGTQVTVSS	low polyreactivity
QVQLVESGGGLVQAGGSLRLSCAASGGTFLGNAMGWYRQAPGKERELVADITSGGSTNYADSVKGRFTITRDNAKNTVYLQMNSLKPEDTAVYYCNARWWFQLYYYSTFAGYNYWGQGTQVTVSS	low polyreactivity
QVQLVESGGGLVQAGGSLRLSCAASGGTFLYYAMGWYRQAPGKERELVAAISSSTGSTNYADSVKGRFTISRDNAKNTVYLQMNSLKPEDTAVYYCAAAPHRHSWYYTRHPYFCMDYWGQGTQVTVSS	low polyreactivity
QVQLVESGGGLVQAGGSLRLSCAASGGTFNGNTMGWYRQAPGKERELVAVIDWSGGSTYYADSVKGRFTISRDNAKNTVYLQMNSLKPEDTAVYYYNADSDAQFREPKGLYYWGQGTQVTVSS	low polyreactivity
QVQLVESGGGLVQAGGSLRLSCAASGGTFNQYAMGWYRQAPGKEREFVASISRRGGSTYYADSVKGRFTISRDNAKNTVYLQMNSLKPEDTAVYYCAADAFFRLDYYYWGQGTQVTVSS	high polyreactivity
QVQLVESGGGLVQAGGSLRLSCAASGGTFNTYAMGWYRQAPGKERELVAAITSSGGSTFYADSVKGRFTISRDNAKNTVYLQMNSLKPEDTAVYYCAAKSYWTIVYRHPGYYYWGQGTQVTVSS	low polyreactivity
QVQLVESGGGLVQAGGSLRLSCAASGGTFPWYTMGWYRQAPGKERELFAAISWRGGRTYYADSVKGRFTISRDNAKNTVYLQMNSLKPEDTAVYYCAATPRYRVYYGSYYLRYDYWGQGTQVTVSS	high polyreactivity
QVQLVESGGGLVQAGGSLRLSCAASGGTFQAYAMGWYSQAPGKDREFDAAITAGGGSTSYADSVKGRFTISRDNAKNTVDLQLNRLKPEDSAAYYCAVDGGFPVTDYDYWGQGTQVTVST	low polyreactivity
QVQLVESGGGLVQAGGSLRLSCAASGGTFQYYTMGWYRQAPGKERELVAGISSGGSTYYPDSVKGRFTISRDNAMNTVYLQMNRLKPEVTAVYYCNAVSRRKTYGYRIIKYDYWGQGTQVTVSS	high polyreactivity
QVQLVESGGGLVQAGGSLRLSCAASGGTFRAYVMGWYRQAPGKERELVAAISRSGTRTYYADSVKGRFTISRDNAKNTVYSQLNSLKPEDTAVYYCAAAANSWLFDYWGQGTQVTVSS	high polyreactivity
QVQLVESGGGLVQAGGSLRLSCAASGGTFRGYAMGWYRQATGKERELVAAITYSGGRTYYADSVKGRFTISRDNAKNTVYLQMNSLKPEDTAVYYCNAQSSGRLSYRYDYWGQGTQVTVSS	high polyreactivity
QVQLVESGGGLVQAGGSLRLSCAASGGTFRKNTMGWYRQAPGKERELVAAITRRADRTYYADSVKGRFTISRDNAKNTVYLQMNSLKPEDTAVYYCNAPPPPTKVGGYDYWGQGTQVTVSS	high polyreactivity
QVQLVESGGGLVQAGGSLRLSCAASGGTFRNYAMGWYRQAPGKERELVAAITTGTITNYADSVKGRFTISRDNAKNTVYLQLNSLKPEDTAVYYCNAGAFYSDPYVYWGQGNQVTVSS	low polyreactivity
QVQLVESGGGLVQAGGSLRLSCAASGGTFRRNAMGWYRQAPGKERELVAAISFNGDRTYYADSVKGRFTISRDNAKNTVYLQMNSLKPEDTAVYYCNKASWWWGGYTYPHEYWGQGTQVTVSS	low polyreactivity
QVQLVESGGGLVQAGGSLRLSCAASGGTFRTYAMGWYRQAAGKERELVAAITGSGGRTYYADSVKGRFTISRDNAKNTVYLQMNSLKPEDTAVYDCNTGPVYQGYHWGQGTQVTVSS	high polyreactivity
QVQLVESGGGLVQAGGSLRLSCAASGGTFRVYAMGWYRKAPGKERELVAAITGRGGSTYYADSVKGRFTISRDNAKNTVYLQMNSLKPEDTAVYDCAKDPVTTYYKYDYWGQGTQVTVSS	low polyreactivity
QVQLVESGGGLVQAGGSLRLSCAASGGTFRWNARGWYRQAPGKERELVAAITKSGGSTYYADSVKGRFTISRDIAKNTVYLQMNSLKPEDTAVYYCATDYLRRRDYWGQGTQVTVSS	high polyreactivity
QVQLVESGGGLVQAGGSLRLSCAASGGTFSAYAMGWYRQAPGKERELVAAISYRGGRTYYADSVKGRFTISRDNAKNTVYLQMNSLKPEDTAVYYCNARRGSATHSVTARRGYWGQGTQVTVSS	high polyreactivity
QVQLVESGGGLVQAGGSLRLSCAASGGTFSCYAMGWYRQAPGKERELVAAITRRGGRTYYADSVKGRFTISRDNAKNTVYLQMNSLKPEDTAVYYCNTDYKFDYVGFSTWVVRYDYWGQGTQVTVSS	low polyreactivity

Sequence	polyreactivity (PSR sort gate)
QVQLVESGGGLVQAGGSLRLSCAASGGTFSLNAMGWSRQAPGKERELVAAITYSTGRTHYADSVKGRFTISRDNAKNTVYLQMNSLKPEDTAVYYCAARVYGTKMDYWGQGTQVTVSS	high polyreactivity
QVQLVESGGGLVQAGGSLRLSCAASGGTFSPNTMGWYRHAPGKERELVAAISSSGSTSYADSVKGRFTISRDNAKNTVYLQMNSLKPEDTAVYYCNADDTISYYASGFDNYDYWGQGSQVTVSS	low polyreactivity
QVQLVESGGGLVQAGGSLRLSCAASGGTFSRNAMGWYRQAPGKERELVAAINTSGVSTSYADSVKGRFTISRDNAKNTVYLQMNSLKPEDTAVYYCAAETSSAEVDYWGQGTQVTVSS	low polyreactivity
QVQLVESGGGLVQAGGSLRLSCAASGGTFSRNAMGWYRQAPGKERELVAAITWSGTRTYYADSVKGRFTISRDNAKNTVYLQMNSLKPEDTAVYYCATKGRRSADDTLLDYWGQGTQVTVSS	high polyreactivity
QVQLVESGGGLVQAGGSLRLSCAASGGTFSTNTMGWYRQAPGKEMELVAAITEGTGNTYYADSVKGRFTISRDTAKNTVYLQMNSLKPEDTAVYDCATVAYSGSDFSGSAGAGDYWGQGTQVTVSS	low polyreactivity
QVQLVESGGGLVQAGGSLRLSCAASGGTFSTSAMGWYRQAPGKERELVAAISLSGVRTYYADSVKGRFTISRDNAKNTVYLQMNSLKAEVTAVDYCATRPYSPWRLYYWGQGTQVTGSS	high polyreactivity
QVQLVESGGGLVQAGGSLRLSCAASGGTFSTYAMGWYRQAPGKEREFVAAITRSGTSTYYADSVKGRFTISRDNAKNTVYLQMNSLKPEDTAVYYCATGEHFYRKLDYWGQGTQVTVSS	low polyreactivity
QVQLVESGGGLVQAGGSLRLSCAASGGTFSVYVMGWYRQAPGKERELVAAIRDRGVSTYYADSVKGRFTISRDNAKNTVYLQMNSEKPEDTAVSYCAAKYSYSRKPGAYYYWGQGTQVTVSS	high polyreactivity
QVQLVESGGGLVQAGGSLRLSCAASGGTFTHNAMGWYRQAPGKERELVAAISSSGVRTYYADSVKGRFTISRDNAKNTVYLQMNSLKPEDTAVYYCAADRFRRLHYWTYDYWGQGTQVTVSS	high polyreactivity
QVQLVESGGGLVQAGGSLRLSCAASGGTFTKNAMGWYRQAPGKERELVAAINYSGGSTYYADSVKGRFTISRDNAKNTVYLQMNSLKPEDTAVYYCAADDYRDGFTQYDYWGQGTQVTVSS	low polyreactivity
QVQLVESGGGLVQAGGSLRLSCAASGGTFTKNPMGWYRQAPGKERELVATITFSDGSTYYADSVKGRFTISRDNAKNTVYLQMNSLKPEDTAVYYCNARRSYFLRYGVNYWGQGTQVTVSS	low polyreactivity
QVQLVESGGGLVQAGGSLRLSCAASGGTFTRYAMGWYRQAPGKEREFVAAITFSGGSTYYADSVKGRFTISRDNAKNTVYLQMNSLKPEDTAVYYCAVRERSTYRYYYWGQGTQVTVSS	high polyreactivity
QVQLVESGGGLVQAGGSLRLSCAASGGTFTYYAMGWYRQAPGKVRELVAAISWSGGSTYYADSVKGRFTISRDIAKNSVYLQMNSLKPEDSAVYYCAADYTGHFYYYWGQGTQVTVSS	low polyreactivity
QVQLVESGGGLVQAGGSLRLSCAASGGTFVGNAMGWYRQAPGKERELVAAISTNSGSTYYADSVKGRFTISRDNAKNTVYLQMNSLKPEDTAVYYCATRNSSKRRGYYYWGQGTQVTVSS	high polyreactivity
QVQLVESGGGLVQAGGSLRLSCAASGGTFVYYAMGWYRQAPGKERELVAAINWSGGSTYYADSVKGRFTISRDNAKNTVYLQMNSLKPEDTAVLLLQRSGLRRSGVWFDYWGQGTQVTVSS	low polyreactivity
QVQLVESGGGLVQAGGSLRLSCAASGGTFWLYTMGWYRQAPGTERELVAAITKSGGSTYYADSVKGRFTISRDNAMNTVYLQMNSLKPEDTAVYYCAARYSVYRDGYYWGQGTQVTVSS	high polyreactivity
QVQLVESGGGLVQAGGSLRLSCAASGGTFWYYDMGWYRQAPGKERELVAAISSGGNTYYADSVKGRFTISRDNAKNTVYLQMNSLKREDNAVYYWAALPKYGSYYYYPPFDYDYWGHGTQVTVSS	low polyreactivity
QVQLVESGGGLVQAGGSLRLSCAASGGTFYLYAMGWYRQAPGKERELVAAISRSGGITYYADSVKGRFTISRDNAKNTVYLQMNSLKPEDTAVYYCDAAALSRYRLQEGYYWGQGTQVTVSS	high polyreactivity
QVQLVESGGGLVQAGGSLRLSCAASGGTFYRNAMGWYRQAPGKERELVASISRTGGSTYYADSVKGRFTISRDIAKNTVYLQMNSLKPEDTAVYYCAKKQPRYSYFDNDYWGQGTQVTVSS	high polyreactivity
QVQLVESGGGLVQAGGSLRLSCAASGGTFYRNDMGWYRQAPGKERELVAVITYRGGSTDYADSVKGRFTISRDNAKNTVYFQMNSLKPEDTAVYYCAVDYTFSYPYEDDYWGQGTQVTVSS	low polyreactivity
QVQLVESGGGLVQAGGSLRLSCAASGGTFYVNDMGWYRQAPGKERELVATITYSGTSTYYADSVKGRFTISRDNAKNTVYLQMNSLKAEDTAVYYCATDVLLYFEPVNLDYWGQGTQVTVSS	low polyreactivity
